{
  "source": "patent US20230093399A1",
  "about": "“METHODS FOR GENERATING PLURIPOTENT STEM CELL-DERIVED BROWN FAT CELLS” (AgeX Therapeutics, Inc., priority 2013, published 2023)",
  "molecules": {"B1": {"name": "BMP4: Bone Morphogenetic Protein 4, TGF-beta superfamily member (protein, UniProt P12644 293-408, looked up)", "Bone morphogenetic protein 4": "SPKHHSQRARKKNKNCRRHSLYVDFSDVGWNDWIVAPPGYQAFYCHGDCPFPLADHLNSTNHAIVQTLVNSVNSSIPKACCVPTELSAISMLYLDEYDKVVLKNYQEMVVEGCGCR"}},
  "key": {"[1]": {"tested_on": "Bone marrow-derived mesenchymal stem cells (MSCs)", "experiment": "Differentiation of bone marrow-derived MSCs in HyStem-C beads, FABP4 expression", "assay_type": "cell-based", "conditions": "14 days, 50 ng/mL BMP2, or 10 ng/mL BMP4, or 100 ng/mL BMP7", "description": "The Gelin-S® component (10 mg of thiol-modified gelatin (BioTime)) is dissolved in 1.0 ml of degassed deionized water to prepare a 1% w/v solution, and polyethylene glycol diacrylate (10 mg of PEGDA) is dissolved in 0.5 ml of degassed deionized water to prepare a 2% w/v solution. Then, HyStem (1 ml, 1% w/v) is mixed with Gelin-S (1 ml, 1% w/v) immediately before use. Pelleted cells are resuspended in the recently prepared HyStem:Gelin-S (1:1 v/v) mix described above. Upon the addition of the PEGDA cross-linker, the cell suspension, at a final concentration of 2.0×10^7 cells/ml is aliquoted (25 μl/aliquot) into six-well plates (Corning® 3516; VWR, PA, USA) after partial gelation. Following complete gelation (20 min), Differentiation Medium is added to each well. Plates were then placed in a humidified incubator at 37° C. with ambient O2 and 10% CO2, and the cells were fed three-times weekly. At the desired time point, hydrogel constructs were either fixed and processed for immunohistochemical analysis or lysed using RLT (Qiagen, CA, USA) with 1% beta-mercaptoethanol for total RNA to analyze transcript expression using quantitative real-time PCR (qRT-PCR) and/or whole-genome microarray."}, "[2]": {"tested_on": "cell line E15 and the line W10", "experiment": "Cell lines E15 and W10 in micromass versus HyStem-C culture with BMP4, gene expression", "assay_type": "cell-based, human", "conditions": "micromass conditions supplemented with 10 ng/mL BMP4", "description": "In addition, the incubation of hEP cell lines in HyStem-C (BioTime, Inc. Alameda, Calif.) allowed the accumulation of a large amount of data on the biological influence of HyStem-C (BioTime, Inc. Alameda, Calif.) on diverse cell types. […] This physiological effect on myofibroblastic differentiation seen in many lines cultured in HyStem-C (BioTime, Inc. Alameda, Calif.) beads (i.e., the strong reduction in MYH11 expression) has therapeutic implications in vivo, such as in inhibiting fibrosis or adhesions. It also is of benefit in surgical settings where cells could be transplanted to regenerate tissue function while inhibiting adhesions and related fibrotic process at the surgical site.\nThe present invention utilizes micromass differentiations to generate high-density cultures, thereby predisposing hEP cells to differentiation in the presence of exogenous factors. Differentiation by micromass culture was performed according to the manufacturer's (BioTime) instructions (Chondrogenesis Differentiation Kit ES-K42). Briefly, cells were cultured in the undifferentiated state, trypsinized (0.25% w/v trypsin/EDTA (Invitrogen)), diluted 1:3 with PBS (Ca and Mg free), and resuspended at a cell density of 2.0×10^7 cells/ml in their respective growth media. […]"}},
  "data": [
    {"molecule": "B1", "values": [
      {"measurement": "differentiation into adipocytes as evidenced by expression of FABP4", "setting": "[1]", "result": "caused the differentiation of the cells into adipocytes"},
      {"measurement": "MYH11 expression", "setting": "[2]", "result": "strongly induced"}
    ]}
  ]
}
